Measured values taken from US20260132182A1 (published 2026).
Starred links: 1 amine or outer side, 2 acyl side, 3 side chain; linkers in the order of their positions; H or OH if unused. Non-standard residues stand in square brackets, D forms with d. Groups on a side chain read outwards from the residue. *: point of attachment. C20 diacid = O=C(O)CCCCCCCCCCCCCCCCCCC(=O)*; C18 diacid = O=C(O)CCCCCCCCCCCCCCCCC(=O)*; C16 diacid = O=C(O)CCCCCCCCCCCCCCC(=O)*; γGlu = O=C(O)[C@H](CCC(=O)[*:2])N[*:1]; C14 diacid = O=C(O)CCCCCCCCCCCCC(=O)*; Desaminohistidyl = O=C(CCc1c[nH]cn1)*; εLys = N[C@@H](CCCCN[*:1])C(=O)[*:2]; Trx = NC[C@H]1CC[C@H](C(=O)O)CC1; AEEA = NCCOCCOCC(=O)O; Aib = CC(C)(N)C(=O)O

B1: Compound 0417 (peptide)
peptide: H[Aib]EGTFTSK([AEEA-AEEA-γGlu-Trx-C20 diacid])VSSYLEEQAAREFIEWLVRGRGEASELSTAALGRLSAELHELATLPRTETGSGSP-NH2
B2: Compound 0474 (peptide)
peptide: HAEGTFTSDVSSYLEEK([AEEA-AEEA-γGlu-C20 diacid])AAREFIEWLVRGRGEASELSTAALGRLSAELHELATLPRTETGSGSP-NH2
B3: Compound 0472 (peptide)
peptide: HAEGTFTSDVSSYLEEK([AEEA-AEEA-γGlu-C18 diacid])AAREFIEWLVRGRGEASELSTAALGRLSAELHELATLPRTETGSGSP-NH2
B4: Compound 0473 (peptide)
peptide: HWEGTFTSDVSSYLEEK([AEEA-AEEA-γGlu-C20 diacid])AAREFIEWLVRGRGEASELSTAALGRLSAELHELATLPRTETGSGSP-NH2
B5: Compound 0436 (peptide)
peptide: H[Aib]EGTFTSDVSSYLEEQAAKEFIEWLVRGRGEASELSTAALGRLSAELHELATLPRTETGSGSP-NH2
modifications: not fully specified (residue 20)
B6: Compound 0437 (peptide)
peptide: HWEGTFTSDVSSYLEEQAARK([εLys-AEEA-AEEA-γGlu-Trx-C20 diacid])FIEWLVRGRGEASELSTAALGRLSAELHELATLPRTETGSGSP-NH2
B7: Compound 0433 (peptide)
peptide: HWEGTFTSDK([εLys-AEEA-AEEA-γGlu-Trx-C20 diacid])SSYLEEQAAREFIEWLVRGRGEASELSTAALGRLSAELHELATLPRTETGSGSP-NH2
B8: Compound 0434 (peptide)
peptide: HWEGTFTSDVSSYLEEK([εLys-AEEA-AEEA-γGlu-Trx-C20 diacid])AAREFIEWLVRGRGEASELSTAALGRLSAELHELATLPRTETGSGSP-NH2
B9: Compound 0438 (peptide)
peptide: H[Aib]EGTFTSDVSSYLEEQAAREFIEWLVRGRKEASELSTAALGRLSAELHELATLPRTETGSGSP-NH2
modifications: not fully specified (residue 31)
B10: Compound 0483 (peptide)
peptide: H[Aib]EGTFTSDVSK([AEEA-AEEA-γGlu-C16 diacid])YLEEQAVREFIAK([AEEA-AEEA-γGlu-C16 diacid])LVRGRGGGEASELSTAALGRLSAELHELATLPRTETGSGSP-NH2
B11: Compound 0439 (peptide)
peptide: H[Aib]EGTFTSDVSSYLEEQAARKFIEWLVRGRGEASELSTAALGRLSAELHELATLPRTETGSGSP-NH2
modifications: not fully specified (residue 21)
B12: Compound 0416 (peptide)
peptide: HAEGTFTSK([AEEA-AEEA-γGlu-Trx-C20 diacid])VSSYLEEQAAREFIEWLVRGRGEASELSTAALGRLSAELHELATLPRTETGSGSP-NH2
B13: Compound 0415 (peptide)
peptide: H[Aib]EGTFTSDVSSYLEEK([AEEA-AEEA-γGlu-Trx-C20 diacid])AAREFIEWLVRGRGEASELSTAALGRLSAELHELATLPRTETGSGSP-NH2
B14: Compound 0482 (peptide)
peptide: HAEGTFTSDVSK([AEEA-AEEA-γGlu-C16 diacid])YLEEQAVREFIAK([AEEA-AEEA-γGlu-C16 diacid])LVRGRGGGEASELSTAALGRLSAELHELATLPRTETGSGSP-NH2
B15: Compound 0431 (peptide)
peptide: HAEGTFTSDK([AEEA-AEEA-γGlu-Trx-C20 diacid])SSYLEEQAAREFIEWLVRGRGEASELSTAALGRLSAELHELATLPRTETGSGSP-NH2
B16: Compound 0414 (peptide)
peptide: HAEGTFTSDVSSYLEEK([AEEA-AEEA-γGlu-Trx-C20 diacid])AAREFIEWLVRGRGEASELSTAALGRLSAELHELATLPRTETGSGSP-NH2
B17: Compound 0435 (peptide)
peptide: HWEGTFTSDVSSYLEEQAAK([εLys-AEEA-AEEA-γGlu-Trx-C20 diacid])EFIEWLVRGRGEASELSTAALGRLSAELHELATLPRTETGSGSP-NH2
B18: Compound 0051 (peptide)
peptide: [Desaminohistidyl]AEGTFTSDVSSYLEEQAAREFIAWLVRGRK([AEEA-AEEA-γGlu-C18 diacid])EASELSTAALGRLSAELHELATLPRTETGSGSP-NH2
B19: Compound 0440 (peptide)
peptide: H[Aib]EGTFTSDK([AEEA-AEEA-γGlu-Trx-C20 diacid])SSYLEEQAAREFIEWLVRGRGEASELSTAALGRLSAELHELATLPRTETGSGSP-NH2
B20: Compound 0045 (peptide)
peptide: H[Aib]EGTFTSDVSSYLEGQAAKEFIAWLVRGRK([εLys-AEEA-AEEA-γGlu-C18 diacid])GGEASELSTAALGRLSAELHELATLPRTETGSGSP-NH2
B21: Compound 0475 (peptide)
peptide: HAEGTFTSDK([AEEA-AEEA-γGlu-C16 diacid])SSYLEEK([AEEA-AEEA-γGlu-C16 diacid])AAREFIEWLVRGRGEASELSTAALGRLSAELHELATLPRTETGSGSP-NH2
B22: Compound 0484 (peptide)
peptide: H[Aib]EGTFTSDVSK([AEEA-AEEA-γGlu-C14 diacid])YLEEQAVREFIAK([AEEA-AEEA-γGlu-C14 diacid])LVRGRGGGEASELSTAALGRLSAELHELATLPRTETGSGSP-NH2

molecular target: human GLP-1 receptor (human, UniProt P43220 24-463); test: cell-based or functional assay

Binder | Human GLP-1R potency [EC50 (pM)] [pM]
B1 | 97.8
B2 | 2.9
B3 | 2.8
B4 | 3.1
B5 | 15.2
B6 | 12
B7 | 30.7
B8 | 11.8
B9 | 11.8
B10 | 33.7
B11 | 8.3
B12 | 105
B13 | 10.3
B14 | 36.5
B15 | 10.9
B16 | 11.2
B17 | 92.4
B18 | 14.3
B19 | 5.7
B20 | 19.4
B21 | 70.4
B22 | 72.8

molecular target: T1, human amylin-3 (a) receptor (human, UniProt P30988 25-474; O60896 24-148); test: cell-based or functional assay
T1 sequence (looked up) 1: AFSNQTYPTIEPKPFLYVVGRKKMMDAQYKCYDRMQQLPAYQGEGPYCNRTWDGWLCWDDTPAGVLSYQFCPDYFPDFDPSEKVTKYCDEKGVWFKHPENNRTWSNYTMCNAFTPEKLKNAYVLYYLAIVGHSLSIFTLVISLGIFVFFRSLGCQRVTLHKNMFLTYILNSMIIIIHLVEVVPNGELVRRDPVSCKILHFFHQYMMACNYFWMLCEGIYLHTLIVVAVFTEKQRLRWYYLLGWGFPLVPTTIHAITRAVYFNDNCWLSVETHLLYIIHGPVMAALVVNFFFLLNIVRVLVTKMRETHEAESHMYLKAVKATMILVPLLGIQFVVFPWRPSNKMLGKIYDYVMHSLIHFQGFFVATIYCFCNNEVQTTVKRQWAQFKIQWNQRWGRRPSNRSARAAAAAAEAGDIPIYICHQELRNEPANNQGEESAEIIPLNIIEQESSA
T1 sequence (looked up) 2: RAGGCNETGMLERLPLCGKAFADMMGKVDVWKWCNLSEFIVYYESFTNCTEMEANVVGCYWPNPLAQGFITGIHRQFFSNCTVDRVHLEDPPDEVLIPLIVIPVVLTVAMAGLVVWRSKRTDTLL

Binder | Human AmyR3 potency [EC50 (pM)] [pM]
B1 | 21
B2 | 21.8
B3 | 24
B4 | 16.2
B5 | 12.3
B6 | 11.8
B7 | 12.9
B8 | 13.9
B9 | 27.5
B10 | 36.8
B11 | 10.7
B12 | 18.3
B13 | 16.1
B14 | 31.8
B15 | 11.9
B16 | 17.7
B17 | 22.3
B18 | 19.5
B19 | 10.4
B20 | 25.9
B21 | 66.8
B22 | 32.5
